Results on 1 molecule are retold here after article PMC9706563 (Journal of Medicinal Chemistry, 2022).

Ends that are not written are not given here.

In this experiment the target is T1, PRMT5-MEP50 complex (full-length, purified) (human | , UniProt O14744 1-637; Q9BQA1 1-342).
T1 construct: Protein arginine methyltransferase 5 (PRMT5), human, of the full-length PRMT5-MEP50 complex; MEP50 (WDR77), of the full-length PRMT5-MEP50 complex; also called native PRMT5-MEP50; PRMT5-MEP50 methyltransferase; copies: 4 + 4
Description: fluorescence polarisation; competitive; tracer fluorescently labeled … (S1) 1 nM, PRMT5-MEP50 600 nM, unlabeled peptide titrated in two-fold dilutions; 50 mM HEPES, 250 mM NaCl, 1 mM TCEP, 0.01% Tween 20, pH 8.0, room temperature. To be noted: both partners purified.

T1 sequence (O14744 whole entry, chain 1 of 2): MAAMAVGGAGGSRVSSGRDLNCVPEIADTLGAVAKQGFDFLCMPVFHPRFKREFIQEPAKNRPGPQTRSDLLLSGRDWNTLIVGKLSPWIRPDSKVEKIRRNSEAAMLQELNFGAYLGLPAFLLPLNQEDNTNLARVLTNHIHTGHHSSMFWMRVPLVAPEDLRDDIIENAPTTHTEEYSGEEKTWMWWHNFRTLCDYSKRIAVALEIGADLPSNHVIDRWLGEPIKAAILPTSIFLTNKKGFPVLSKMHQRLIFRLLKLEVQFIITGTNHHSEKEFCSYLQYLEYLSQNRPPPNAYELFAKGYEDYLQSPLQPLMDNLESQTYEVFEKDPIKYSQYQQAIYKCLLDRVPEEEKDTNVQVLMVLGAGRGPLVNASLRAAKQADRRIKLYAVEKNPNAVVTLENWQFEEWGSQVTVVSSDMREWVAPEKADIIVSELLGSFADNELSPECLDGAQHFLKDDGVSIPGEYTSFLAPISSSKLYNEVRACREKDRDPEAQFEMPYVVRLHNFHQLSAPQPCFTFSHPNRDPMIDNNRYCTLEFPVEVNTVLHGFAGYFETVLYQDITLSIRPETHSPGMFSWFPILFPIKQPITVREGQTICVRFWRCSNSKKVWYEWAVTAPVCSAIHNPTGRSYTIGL
T1 sequence (Q9BQA1 whole entry, chain 2 of 2): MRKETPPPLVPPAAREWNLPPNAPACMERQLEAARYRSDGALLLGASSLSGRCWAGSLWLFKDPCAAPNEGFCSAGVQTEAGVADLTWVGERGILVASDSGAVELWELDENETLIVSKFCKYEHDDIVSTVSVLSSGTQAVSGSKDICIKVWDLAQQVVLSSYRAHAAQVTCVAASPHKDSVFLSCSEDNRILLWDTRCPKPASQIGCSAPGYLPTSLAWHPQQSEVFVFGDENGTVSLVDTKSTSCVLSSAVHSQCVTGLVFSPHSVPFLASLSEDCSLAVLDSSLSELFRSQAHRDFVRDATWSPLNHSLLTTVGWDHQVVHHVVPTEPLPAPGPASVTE

B1: fluorescently labeled SRVVPGQFDDADSSD RioK1 sequence (peptide)
peptide: SRVVPGQFDDADSSD
modifications: not fully specified; also: FITC label, position not given here
notes: also called S1; source: synthetic peptide
Consider B1, for which the binding result is recorded as “binds”.
